Measurements reported in patent US12077763B2, “RNA-based control of powdery mildew” (Greenlight Biosciences, Inc., priority 2021, dated 2024).

Tested on: E. necator
Assay: Leaf disc assay, dry inoculum (settling tower), decrease in disease severity / hyphal growth (Example 2)
Details: decrease in disease severity (hyphal growth) relative to untreated control, value ± SE; for % decrease =/− SE TP1: time point 1 (untreated control hyphal growth ≥50%); for % decrease =/− SE TP2: time point 2

Molecule | % decrease =/− SE TP1 [%] | % decrease =/− SE TP2 [%]
GS1855: dsRNA trigger SEQ ID NO 212; gene target Golgi apyrase (nucleic acid) TAACACCCGCAGTTGCCATCAGAAAGAAGGGAGTATCTTTAACTTGATTCTCAGGTACAATACTCAATGCATGATCTAGTAAGCTTTGAAGATGTTCAGGACCAATATCTGTTATGCGATCGGCAAAGGAAGAGACGCCGGGTTTGATTTTTTTTGAATATCCAGGTTTAGTGTGTAACTGAGGTAGTTGGTTCAATTGAATCTCATTTTTTGCATCGTAACGAGCTCGAGATGTATTGAGCCACCGGTAGACGTGGACTCGAGTCCCTGACGAGCCCGCGTCTAAGATAACCCCCCATCGCCATTTACCCATAAGTAGCCTATCGTTACGGTTTGGCGATGCCGGTCTAGGATATGTGCTTCAATATCAAAAATAATCCGTGAAGCGTTACAAAAACATGAGTCAATTATACGGAATTTGAAACGAGTGTGAAAGGAAGTCGGCAGACTCAAAAATAAAAAAGAAAGATAATAATTCGAATTTGAATGAGAATGAGTAGTGGTCGGATAAGATGTTTAATGCTAAGTGCTAAGATAACTGACTAAGACTTGAT | 26 ± 4 | 10 ± 6
GS1859: dsRNA trigger SEQ ID NO 207; gene target Citrate/oxoglutarate carrier protein (nucleic acid) AGGATCTTCTTTTGCTCTGCATTTCAACTCGAATAACCTCAATTGGTTGATTCCACGCACTCAACCCTCCCCCAAGGGCACTAGCGAGAATTCGTTCCCAAGCACTTAATGGACCGCCATTTTCTTTTCCTGAAACCTTTCGGATTCCCTGTTCTGCCAAACGACTTAATCCAAATCTGGATCCCCAATTCGTCATTTGTCGAATGGCAACAGCATTCACACCTTTATTAATACCTCTGATCCCATCTTTACGGTATATATCCATAAATGTTGAGAAAGTTCCTGGGGGCTTTACACCAGTGGATGCTAATTTGGATTTCGTAATCTCCACAGTTTTCATGCATGTACAAAAGCCCATAGTGGCATATGCTTGAGCCATACCCCCGACAACGCCTCCTGTGATGCCGGCTGTGAAGATGCCGGCTCCAAAACTTCGAGCATAGAATTCTGCTTCTGAAGCGACAAATAGAAGAACTGCACCTTTTGATGAAGCTTCAATCCAAGCCCATGGGATCAAGCCCTGATAAAAACCCAAAACA | 32 ± 5 | 26 ± 7
GS1849: dsRNA trigger SEQ ID NO 143; gene target Chitin synthase 8 (nucleic acid) TTGAGAAGCAGCCAACCATGTATTAACAACTAAGCTAGTGCTTGCATCAAGTTTATATGATTGCGTAGACGTGTAAGCAGTATGGATTGAGTTTAGGAGAGTAGTCGATGAGACTTGCGCTGGAGGTTGAGAAGTAGAATTGTTATTTCGAACACCTCCATACGCTGAAGAGGTAGTTGAATAGATAGACATCCGGTGAGTTCCAGTCATTTTATGAAGAGTGATCGAGTTTTTAGACCTTTCCACGTATGGATATTTAAGGTATGTAAATGAGTCAATTCAAAGTCACAAGATTCTCGATCAGTCGATTGATTGGCTTATTGACAATATTCTTTAGCCGAAATCTTAGACAATGGCTTGACAGAATTAATGTCTGGTCTTCGAAGTATCCAGTTGGTGTGTAGCAGATAACTTCGGTATAGTTGTAGAAATGGAAAACAAACCGCAAAAGACAGTCTTGTATCGACCGTGAGGCCGACAGTAGGAGAAATTCAATGCTATTGAGAAATTGAACAACCAAAAAGCGAAAGTAGGGTAACAAGTTTCGACTCACAGACCTA |  | 5 ± 8
GS1852: dsRNA trigger SEQ ID NO 202; gene target PA-phosphatase related-family protein DDB_G0275547 (nucleic acid) TTCTCTTAGGGACGGTTGGCATCATTATTAATTTTGCAGAACCAATTCCATCTCGATCTTTTCCGATTTATTCTCAAAATGGAGATATTGTTTATCCTCAATTTGCATATCCTCTTCGCAAGAATATCATTCCAATTTGGGTAGCAATTTTGTTGGCTTCACTTATTCCTTTGCTCATCATTTTCCTTACACAATTTCGTATTCGCTCGTTTTGGGATGCAAACAACGCGATTACAGGGCTATTATACTCCCTTATTATCGCCGGAGTGTTTCAAGTCTTCTTAAAGTGGTTAATTGGAGGGCTGAGACCTCATTTTCTAACCGTCTGTGAGCCAATAATTCCAACACGTGCTCCAATAAAGGCTAGATATGGGCCTAGAATAATAATGTACGACAGAAATGTCTGCACTGGCGACAAAAGGCAGATCAATAATTCTCTTGAATCATTCCCTTCAAGCCAATCGACTGTAGCATTTTCTGGTTTCGTTTATTTGGCTATATACCTGAATGCAAAACTTAAAATTTGGTCTAATTACCATTCTGCCATGTGGAAGAT | 22 ± 4 | 
GS1856: dsRNA trigger SEQ ID NO 214; gene target Zinc finger and SCAN domain-containing protein 20 (nucleic acid) GACCATTGTGGTCTTTCGACAAAATGATTTCAAACAGCCCTCGTGTGCACATTTGTATGGTCTTTTTCCTGTATGAATACGACGATGACGAGCCAGACTAGATGAATCAGAGAATCGTTTCCCACAACCAAGATGCTGGCATTGATGTGGCTTTTCGCCAGTGTGTGTTCGAATGTGCACAGTTAAGGCACTTCTTTGAATGAAACTTTTTCCACATCCAGGCTGCATGCATGAATATGGCCGTTCGTTGGTATGTATTCGATAGTGGCGTTGAAGGTCAGACTTCCTGTTGAAACTCTTGTGACATGTCTGCCAATCACACTGAAATGGTCTCGCATTAGGTTCGTTTTCAACGAGCTCCATTACATCCATAGTGAACCGACAAGTAGTGTCGAATGTATGCAATGTCGGAGAAGTTAAGGGTTGGACAAGAGGTACCGCAGCAAAAGCTGCAGGTGTGGTGATTAGGTGGGGATGGGTGTCGAATATATAAGATTGCGATTCTCTATTTAAAGAAAAAAGAAATATAAGCAAAATAAAATATTTCTTTTGA | 1 ± 7 | 6 ± 8
GS1853: dsRNA trigger SEQ ID NO 204; gene target Uncharacterized WD repeat-containing protein C17D11.16 (nucleic acid) CGGACTTCTTGGTCAGGCGCAAAAGAAGTTGAAAATACCTTTCCAACTTCCAAATCTCTGGACACTATCATTGAGGGGCCCGATGGCTGAATATTCCACAGTTTTACGAGTTTATCAGAAGACCCTGTGGCCATAAACCCGGGAATGATAGGATTAATATCAAAAGCACAAACTGATTTGTCATGTGCTTGCAATAACCAAACTGGCTTACTAGAACTGGGAGTAGATGGTGCCATTCGTATATCGTGATAATGGACCATACCACCTTCTGTCGTTACGTAAAAGAAATTTGGGTTGTGTGCATCCCATTTGACAGCTTCTACATCACTTTCTACACCCCAAATCGGCACTTTGGATTCTGGTGCTCTCATGTCGGCCGCTACGACACTCCGATCATAACTTCCACTAAGTAAGACAGTGGAGTCAACAGGATGCCATTGTATTGAGCAAACTTTATCTGAATGATTACTATATGATTTAGCACATTTATTAGTATTAAGGTCCCATAGTTTGACAGTCTTGTCGGCGGAAGAAGAGGCAAGTAAATTTTGGTGTT | 14 ± 6 | 0 ± 5
GS1857: dsRNA trigger SEQ ID NO 129; gene target Transcriptional adapter 2 (nucleic acid) CTTGCTTGAAATTCTTCTCGTGGAATTTCTTCAAGAAGCTGAGTATCCTTGAGACTAGCTCTAACAGGTAGGGGAAACTTTGGACTATCCAGATAAACTTTCTGATAATGCGCCTTAACTTCGTCCTTGTCTCGATAACCTCCAATATGGTCTGCTATATCTGCCCATGATCCAAAGCCATATATTTCGGCTCCCTCCAAAAGAAGTAATTCTTCATCAGCACCCCAGTTTCTGTCATATATGGGAACTGAATTTTGCTCTATTACTCGGTATGGATGGGTTCCTGGGTTGTGGTTGTGTGAAGCTTCGCCATTTGAGAAGCATAGCACACAAAGATCATAATCATGACAGTGAGGGTCAGCACACCTAATTCGAACTGTCGAGGTAATGTCTGCTGAGCATACATCGCATACATACTTAACACCTCCCTCGGCACCTCGGGTCGCAGTCTTCTTCCTGATTTGGCCCATTGCTAAAACTCATGGTCAGTACTAGCAACAGAGCTCCCCTTGGTAGCACGAAGTTAAAACTGCAAATCCTTAAAATTTT | 28 ± 5 | 14 ± 7
GS1850: dsRNA trigger SEQ ID NO 198; gene target Ubiquitin-conjugating enzyme E2-34 kDa (nucleic acid) TCGTCATCCTCGTCTTGTTCAAAATCATAGTTATCATCGTCTGAGCTCTCGCTGGTACCGAACTCATCCTGATCATCACTCTCGTTCCAGAAATCATCGTCATCATTAATTTGCGGAGGAGGCGCCTCAATTAATGTTTTTGGCATCACAAAACCCTCCGGTATATCTCTCATAGAAATTCTTACTGTCTCCAAAGCCCGCTGTTTGTAAGCCTCCAGGTTATCCCGATACATAACGCTGGCATCAACATTTGCAGGGGAGGTAATCTCAGGGTCATCTAGTAAGAGAAGAATAGAGCGGAGAACACTTTCAACACTCTGAATTGATGACCAGCGCTCACAAGCAAGCTCTCCAGATTGTTCATCATCTCCAGCAGCGTGTAGTATTGAGATGCAAACCCTGCCATCAGGATATATATTTGGATGGTAAATAGGTTGCAAGAATTTGAAGGTCGGAGGAGCATAAGGATATTTATCAGTAAAACCCATTTCAGCCTTAAAATAAGCCCCATCGAAAGCACTTTCTGGGTTGACTACTATTAGAGCGATTAACCACTTGAA | 13 ± 6 | 0 ± 6
